In the data set the target is T1, KSRP (UniProt Q92945 1-711).
T1 sequence: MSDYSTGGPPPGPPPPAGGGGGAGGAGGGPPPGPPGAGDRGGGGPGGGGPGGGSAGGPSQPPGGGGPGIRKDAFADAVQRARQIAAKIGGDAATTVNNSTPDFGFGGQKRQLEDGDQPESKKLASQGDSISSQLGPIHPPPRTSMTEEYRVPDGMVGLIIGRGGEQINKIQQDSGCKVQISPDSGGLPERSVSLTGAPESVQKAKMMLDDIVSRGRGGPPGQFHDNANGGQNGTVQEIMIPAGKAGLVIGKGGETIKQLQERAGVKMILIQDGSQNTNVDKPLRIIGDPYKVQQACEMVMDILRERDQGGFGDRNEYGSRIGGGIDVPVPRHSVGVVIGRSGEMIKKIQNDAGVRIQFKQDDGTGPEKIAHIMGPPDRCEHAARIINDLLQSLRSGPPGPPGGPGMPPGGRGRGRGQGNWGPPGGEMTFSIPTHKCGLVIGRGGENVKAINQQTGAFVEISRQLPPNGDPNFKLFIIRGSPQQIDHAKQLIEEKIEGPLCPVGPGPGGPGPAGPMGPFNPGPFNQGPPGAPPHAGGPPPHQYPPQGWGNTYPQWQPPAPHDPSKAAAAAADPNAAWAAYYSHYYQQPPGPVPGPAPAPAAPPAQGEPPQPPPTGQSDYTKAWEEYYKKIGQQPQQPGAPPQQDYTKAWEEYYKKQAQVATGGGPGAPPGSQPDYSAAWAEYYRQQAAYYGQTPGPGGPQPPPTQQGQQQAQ
Description: UV-crosslinking or EMSA. A general note: A gel shift assay detects complexes by their altered migration in electrophoresis.

Regarding CUGUUGAAUCUCAUGG (ssRNA) [TL-miR-21 WT], the binding result is on record as “binds”. As for CUCUUCAAUCUCAUGG (ssRNA) [TL-miR-21 M2], the entry is “no binding”.

The values above are taken from publication PMC2768332.
